According to publication PMC3905752 (Nature chemical biology, 2013):

Target: T1, Cdc34A^FL, full length Cdc34A (residues 1-236) (human, UniProt P49427 1-236)
T1 sequence: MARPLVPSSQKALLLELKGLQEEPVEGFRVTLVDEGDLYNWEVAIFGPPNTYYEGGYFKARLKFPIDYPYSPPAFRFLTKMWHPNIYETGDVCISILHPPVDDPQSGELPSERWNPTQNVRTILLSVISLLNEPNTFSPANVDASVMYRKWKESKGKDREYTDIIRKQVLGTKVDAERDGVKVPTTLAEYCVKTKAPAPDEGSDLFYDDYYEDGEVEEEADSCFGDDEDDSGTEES
Assay: NMR titration

- binding result: binds
B1: Rbx1^12-108-SSQS, Rbx1 fragment that contains the RING domain (residues 12-108) (domain or fragment)
chain: not shown
